Changes are numbered by the printed parent chain.
B1: 230 (protein)
chain: LDNGLARTPTMGWLHWERFMCNLDCQEEPDSCISEKLFMEMAELMVSEGWKDAGYEYLCIDDCWMAPQRDSEGRLQADPQRFPHGIRQLANYVHSKGLKLGIYADVGNKTCAGFPGSFGYYDIDAQTFADWGVDLLKFDGCYCDSLENLADGYKHMSLALNRTGRSIVYSCEWPLYMWPFQKPNYTEIRQYCNHWRNFADIDDSWASIKSILDWTSFNQERIVDVAGPGGWNDPDMLVIGNFGLSWNQQVTQMALWAIMAAPLFMSNDLRHISPQAKALLQDKDVIAINQDPLGKQGYQLRQGDNFEVWERPLSGLAWAVAMINRQEIGGPRSYTIAVASLGKGVACNPACFITQLLPVKRKLGFYEWTSRLRRHINPTGTVLLQLENTMQMSKDLLL
modifications: Synthetic Polypeptide sequence of Variant No. 230 of mature Human GLA
B2: 193 (protein)
chain: B1 chain with A206G, R374S
modifications: Synthetic Polypeptide sequence of Variant No. 193 of mature Human GLA
B3: 192 (protein)
chain: B1 chain with A206E, R374S
modifications: Synthetic Polypeptide sequence of Variant No. 192 of mature Human GLA
B4: 232 (protein)
chain: B1 chain with T369S, R374S
modifications: Synthetic Polypeptide sequence of Variant No. 232 of mature Human GLA
B5: 231 (protein)
chain: B1 chain with T369D, R374S
modifications: Synthetic Polypeptide sequence of Variant No. 231 of mature Human GLA
B6: 391 (protein)
chain: LDNGLARTPTMGWLHWERFMCNLDCQEEPDSCISEKLFMEMAERMVSEGWKDAGYEYLCIDDCWMAPQRDSEGRLQADPQRFPHGIRQLANYWHSKGLKLGIYADVGNKTCAGFPGSFGYYDIDAQTFADWGVDLLKFDGCYCDSLENLADGYKHMSLALNRTGRSIVYSCEWPLYMWPFQKPNYTEIRQYCNHWRNFADIDDSWKSIKSILDWTSRNQERIVDVAGPGGWNDPDMLVIGNFGLSWDQQVTQMALWAIMAAPLFMSNDLRHISPQAKALLQDKDVIAINQDPLGKQGYQLRKGDNFEVWERPLSGDAWAVAIINRQEIGGPRSYTIPVASLGKGVACNPACFITQLLPVKRQLGFYNWTSRLKSHINPTGTVLLQLENTMQMSLKDLL
modifications: Synthetic Polypeptide sequence of Variant No. 391 of mature Human GLA
B7: 396 (protein)
chain: B6 chain with W93V, L158M
modifications: Synthetic Polypeptide sequence of Variant No. 396 of mature Human GLA
B8: 397 (protein)
chain: B6 chain with W93V, L158R
modifications: Synthetic Polypeptide sequence of Variant No. 397 of mature Human GLA
B9: 361 (protein)
chain: B6 chain with S47R, W93V
modifications: Synthetic Polypeptide sequence of Variant No. 361 of mature Human GLA
B10: 394 (protein)
chain: B6 chain with W93R
modifications: Synthetic Polypeptide sequence of Variant No. 394 of mature Human GLA
B11: 395 (protein)
chain: B6 chain with Y92H, W93V, K206A
modifications: Synthetic Polypeptide sequence of Variant No. 395
B12: 392 (protein)
chain: B6 chain with W93T
modifications: Synthetic Polypeptide sequence of Variant No. 392 of mature Human GLA
B13: 393 (protein)
chain: B6 chain with W93G
modifications: Synthetic Polypeptide sequence of Variant No. 393 of mature Human GLA

Test: HTP-analysis of yeast culture supernatants, no challenge (MUGal hydrolysis)
Assay type: biochemical
Conditions: activity of the variant/activity of Rd2BB (SEQ ID NO: 10), yeast supernatant
In short: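 GLA variants were expressed in INVSc1 yeast grown in SD-Ura broth with glucose at 30° C., and culture supernatants were collected after 66-84 h. Supernatant was mixed with McIlvaine buffer pH 4.8 and MUGal (2 mM stock) in 50 mM citrate, 200 mM KCl, pH 4.6, incubated at 37° C. for 30-180 minutes, then quenched with sodium carbonate.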

| Molecule | Relative Activity of GLA Variants After No Challenge (NC) |
| --- | --- |
| B1 | + (+ = 0.5 to 1.5 relative activity over Rd2BB (SEQ ID NO: 10)) |
| B2 | + (+ = 0.5 to 1.5 relative activity over Rd2BB (SEQ ID NO: 10)) |
| B3 | + (+ = 0.5 to 1.5 relative activity over Rd2BB (SEQ ID NO: 10)) |
| B4 | ++ (++ = 1.5 to 2.5 relative activity over Rd2BB (SEQ ID NO: 10)) |
| B5 | ++ (++ = 1.5 to 2.5 relative activity over Rd2BB (SEQ ID NO: 10)) |

Same assay, conditions: activity of the variant/activity of Rd4BB (SEQ ID NO: 15)

| Molecule | Relative Activity of GLA Variants After No Challenge (NC) |
| --- | --- |
| B6 | + (0.5 to 1.5 relative activity over Rd4BB (SEQ ID NO: 15)) |
| B7 | + (0.5 to 1.5 relative activity over Rd4BB (SEQ ID NO: 15)) |
| B8 | + (0.5 to 1.5 relative activity over Rd4BB (SEQ ID NO: 15)) |
| B9 | + (0.5 to 1.5 relative activity over Rd4BB (SEQ ID NO: 15)) |
| B10 | + (0.5 to 1.5 relative activity over Rd4BB (SEQ ID NO: 15)) |
| B11 | + (0.5 to 1.5 relative activity over Rd4BB (SEQ ID NO: 15)) |
| B12 | + (0.5 to 1.5 relative activity over Rd4BB (SEQ ID NO: 15)) |
| B13 | + (0.5 to 1.5 relative activity over Rd4BB (SEQ ID NO: 15)) |

Test: HTP-analysis of supernatants pretreated with acid (MUGal hydrolysis)
Assay type: biochemical
Conditions: activity of the variant/activity of Rd4BB (SEQ ID NO: 15); challenge at pH 3.7
In short: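 MUGal hydrolysis was tracked by fluorescence (Ex 355 nm, Em 448 nm) after a 30-180 min reaction at 37° C. in pH 4.8 McIlvaine/citrate buffer, stopped with 1 M sodium carbonate. Beforehand, yeast (INVSc1) culture supernatants carrying GLA variants were held 1-3 h at 37° C. in acidic McIlvaine buffer, pH 3.3-4.3.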

| Molecule | Relative Activity of GLA Variants After Challenge at pH 3.7 |
| --- | --- |
| B6 | + (0.5 to 1.5 relative activity over Rd4BB (SEQ ID NO: 15)) |
| B7 | + (0.5 to 1.5 relative activity over Rd4BB (SEQ ID NO: 15)) |
| B8 | + (0.5 to 1.5 relative activity over Rd4BB (SEQ ID NO: 15)) |
| B9 | + (0.5 to 1.5 relative activity over Rd4BB (SEQ ID NO: 15)) |
| B10 | + (0.5 to 1.5 relative activity over Rd4BB (SEQ ID NO: 15)) |
| B11 | + (0.5 to 1.5 relative activity over Rd4BB (SEQ ID NO: 15)) |
| B12 | + (0.5 to 1.5 relative activity over Rd4BB (SEQ ID NO: 15)) |
| B13 | − (<0.5 relative activity over Rd4BB (SEQ ID NO: 15)) |

Same assay, conditions: challenge at pH 4.2; activity of the variant/activity of Rd2BB (SEQ ID NO: 10); yeast supernatant

| Molecule | Relative Activity of GLA Variants After Challenge at pH 4.2 |
| --- | --- |
| B1 | − (− = <0.5 relative activity over Rd2BB (SEQ ID NO: 10)) |
| B2 | + (+ = 0.5 to 1.5 relative activity over Rd2BB (SEQ ID NO: 10)) |
| B3 | + (+ = 0.5 to 1.5 relative activity over Rd2BB (SEQ ID NO: 10)) |
| B4 | ++ (++ = 1.5 to 2.5 relative activity over Rd2BB (SEQ ID NO: 10)) |
| B5 | ++ (++ = 1.5 to 2.5 relative activity over Rd2BB (SEQ ID NO: 10)) |

Test: HTP-analysis of supernatants pretreated with base (MUGal hydrolysis)
Assay type: biochemical
Conditions: activity of the variant/activity of Rd4BB (SEQ ID NO: 15); challenge at pH 9.65
In short: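 Fluorescence of released 4-MU (Ex 355 nm, Em 448 nm) after carbonate quench reports MUGal hydrolysis by GLA variants secreted from INVSc1 yeast. Before the acidic (pH 4.3-4.8) 30-180 min reaction at 37° C, supernatants had been pre-incubated at pH 7.0-9.7 for 1-18 h at 37° C.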

| Molecule | Relative Activity of GLA Variants After Challenge at pH 9.65 |
| --- | --- |
| B6 | − (<0.5 relative activity over Rd4BB (SEQ ID NO: 15)) |
| B7 | + (0.5 to 1.5 relative activity over Rd4BB (SEQ ID NO: 15)) |
| B8 | + (0.5 to 1.5 relative activity over Rd4BB (SEQ ID NO: 15)) |
| B9 | + (0.5 to 1.5 relative activity over Rd4BB (SEQ ID NO: 15)) |
| B10 | − (<0.5 relative activity over Rd4BB (SEQ ID NO: 15)) |
| B11 | + (0.5 to 1.5 relative activity over Rd4BB (SEQ ID NO: 15)) |
| B12 | − (<0.5 relative activity over Rd4BB (SEQ ID NO: 15)) |
| B13 | − (<0.5 relative activity over Rd4BB (SEQ ID NO: 15)) |

Same assay, conditions: challenge at pH 7.6; activity of the variant/activity of Rd2BB (SEQ ID NO: 10); yeast supernatant

| Molecule | Relative Activity of GLA Variants After Challenge at pH 7.6 |
| --- | --- |
| B1 | + (+ = 0.5 to 1.5 relative activity over Rd2BB (SEQ ID NO: 10)) |
| B2 | + (+ = 0.5 to 1.5 relative activity over Rd2BB (SEQ ID NO: 10)) |
| B3 | + (+ = 0.5 to 1.5 relative activity over Rd2BB (SEQ ID NO: 10)) |
| B4 | ++ (++ = 1.5 to 2.5 relative activity over Rd2BB (SEQ ID NO: 10)) |
| B5 | ++ (++ = 1.5 to 2.5 relative activity over Rd2BB (SEQ ID NO: 10)) |
